Data: the supplement of paper PMC6755084

B1: F1*; the commonest letter at each place (parent)
chain: GAGACCGCAACTGAAAAGTTGTTATCACTTGTCGTAAGACACTTTGGATGGGTTGAAGTTCTGCACGTAGAAGCAAAAGGC

Variants of: B1
Assay: fraction ligated after 30 min (ligated reads / total reads); higher = more ligase activity
Details: with F1*sub RNA substrate (template-directed ligation), 42 °C
How it was run: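 Ribozyme variants were transcribed with T7 from PCR-amplified oligo-pool templates and gel-purified. Ligated and unligated bands, separated on gel, were reverse transcribed with barcoded primers and sequenced on a MiSeq, with core bases filtered at quality ≥20. Fraction ligated per variant was computed as ligated reads divided by total reads.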

Variant | fraction ligated
GAGACCGCAACTGAAAAGTTGTTATCACTTGTCGTAAGACACTTTGGTTAGGTTGAAGTTCTGCACGTAGAAGCAAAAGGC [A48T G50A] | 0.158
GAGACCGCAACTGAAAAGTTGTTATCACTTGTCGTAAGACACTTTGGTTCGGTTGAAGTTCTGCACGTAGAAGCAAAAGGC [A48T G50C] | 0.0873
GAGACCGCAACTGAAAAGTTGTTATCACTTGTCGTAAGACACTTTGGTTTGGTTGAAGTTCTGCACGTAGAAGCAAAAGGC [A48T G50T] | 0.392
GAGACCGCAACTGAAAAGTTGTTATCACTTGTCGTAAGACACTTTGGAGGGGTTGGAGTTCTGCACGTAGAAGCAAAAGGC [T49G A56G] | 0.0888
GAGACCGCAACTGAAAAGTTGTTATCACTTGTCGTAAGACACTTTGGAGGGGTTGTAGTTCTGCACGTAGAAGCAAAAGGC [T49G A56T] | 0.191
GAGACCGCAACTGAAAAGTTGTTATCACTTGTCGTAAGACACTTTGGAGGGGTTGCAGTTCTGCACGTAGAAGCAAAAGGC [T49G A56C] | 0.109
GAGACCGCAACTGAAAAGTTGTTATCACTTGTCGTAAGACACTTTGGAAGGGTTGACGTTCTGCACGTAGAAGCAAAAGGC [T49A A57C] | 0.629
GAGACCGCAACTGAAAAGTTGTTATCACTTGTCGTAAGACACTTTGGAAGGGTTGATGTTCTGCACGTAGAAGCAAAAGGC [T49A A57T] | 0.724
GAGACCGCAACTGAAAAGTTGTTATCACTTGTCGTAAGACACTTTGGAAGGGTTGAGGTTCTGCACGTAGAAGCAAAAGGC [T49A A57G] | 0.792
GAGACCGCAACTGAAAAGTTGTTATCACTTGTCGTAAGACACTTTGGTTGGGTTGATGTTCTGCACGTAGAAGCAAAAGGC [A48T A57T] | 0.546
GAGACCGCAACTGAAAAGTTGTTATCACTTGTCGTAAGACACTTTGGTTGGGTTGAGGTTCTGCACGTAGAAGCAAAAGGC [A48T A57G] | 0.787
GAGACCGCAACTGAAAAGTTGTTATCACTTGTCGTAAGACACTTTGGTTGGGTTGACGTTCTGCACGTAGAAGCAAAAGGC [A48T A57C] | 0.68
GAGACCGCAACTGAAAAGTTGTTATCACTTGTCGTAAGACACTTTGGAAGGGTTCAAGTTCTGCACGTAGAAGCAAAAGGC [T49A G55C] | 0.129
GAGACCGCAACTGAAAAGTTGTTATCACTTGTCGTAAGACACTTTGGAAGGGTTAAAGTTCTGCACGTAGAAGCAAAAGGC [T49A G55A] | 0.62
GAGACCGCAACTGAAAAGTTGTTATCACTTGTCGTAAGACACTTTGGAAGGGTTTAAGTTCTGCACGTAGAAGCAAAAGGC [T49A G55T] | 0.24
GAGACCGCAACTGAAAAGTTGTTATCACTTGTCGTAAGACACTTTGGTTGGGTTGCAGTTCTGCACGTAGAAGCAAAAGGC [A48T A56C] | 0.0454
GAGACCGCAACTGAAAAGTTGTTATCACTTGTCGTAAGACACTTTGGTTGGGTTGTAGTTCTGCACGTAGAAGCAAAAGGC [A48T A56T] | 0.0621
GAGACCGCAACTGAAAAGTTGTTATCACTTGTCGTAAGACACTTTGGTTGGGTTGGAGTTCTGCACGTAGAAGCAAAAGGC [A48T A56G] | 0.0654
GAGACCGCAACTGAAAAGTTGTTATCACTTGTCGTAAGACACTTTGGGTGGGTTTAAGTTCTGCACGTAGAAGCAAAAGGC [A48G G55T] | 0.686
GAGACCGCAACTGAAAAGTTGTTATCACTTGTCGTAAGACACTTTGGGTGGGTTCAAGTTCTGCACGTAGAAGCAAAAGGC [A48G G55C] | 0.108
GAGACCGCAACTGAAAAGTTGTTATCACTTGTCGTAAGACACTTTGGGTGGGTTAAAGTTCTGCACGTAGAAGCAAAAGGC [A48G G55A] | 0.787
GAGACCGCAACTGAAAAGTTGTTATCACTTGTCGTAAGACACTTTGGGTCGGTTGAAGTTCTGCACGTAGAAGCAAAAGGC [A48G G50C] | 0.0771
GAGACCGCAACTGAAAAGTTGTTATCACTTGTCGTAAGACACTTTGGGTTGGTTGAAGTTCTGCACGTAGAAGCAAAAGGC [A48G G50T] | 0.235

Variant | fraction ligated
GAGACCGCAACTGAAAAGTTGTTATCACTTGTCGTAAGACACTTTGGGTAGGTTGAAGTTCTGCACGTAGAAGCAAAAGGC [A48G G50A] | 0.118
GAGACCGCAACTGAAAAGTTGTTATCACTTGTCGTAAGACACTTTGGGTGGGTTGAAGTTCTGCACGTAGAAGCAAAAGGC [A48G] | 0.794
GAGACCGCAACTGAAAAGTTGTTATCACTTGTCGTAAGACACTTTGGTTGGGTTGAAGTTCTGCACGTAGAAGCAAAAGGC [A48T] | 0.768
GAGACCGCAACTGAAAAGTTGTTATCACTTGTCGTAAGACACTTTGGTTGGGTTTAAGTTCTGCACGTAGAAGCAAAAGGC [A48T G55T] | 0.17
GAGACCGCAACTGAAAAGTTGTTATCACTTGTCGTAAGACACTTTGGTTGGGTTAAAGTTCTGCACGTAGAAGCAAAAGGC [A48T G55A] | 0.515
GAGACCGCAACTGAAAAGTTGTTATCACTTGTCGTAAGACACTTTGGTTGGGTTCAAGTTCTGCACGTAGAAGCAAAAGGC [A48T G55C] | 0.0233
GAGACCGCAACTGAAAAGTTGTTATCACTTGTCGTAAGACACTTTGGGTGGGTTGATGTTCTGCACGTAGAAGCAAAAGGC [A48G A57T] | 0.795
GAGACCGCAACTGAAAAGTTGTTATCACTTGTCGTAAGACACTTTGGGTGGGTTGACGTTCTGCACGTAGAAGCAAAAGGC [A48G A57C] | 0.792
GAGACCGCAACTGAAAAGTTGTTATCACTTGTCGTAAGACACTTTGGGTGGGTTGAGGTTCTGCACGTAGAAGCAAAAGGC [A48G A57G] | 0.803
GAGACCGCAACTGAAAAGTTGTTATCACTTGTCGTAAGACACTTTGGACGGGTTGACGTTCTGCACGTAGAAGCAAAAGGC [T49C A57C] | 0.266
GAGACCGCAACTGAAAAGTTGTTATCACTTGTCGTAAGACACTTTGGACGGGTTGAGGTTCTGCACGTAGAAGCAAAAGGC [T49C A57G] | 0.445
GAGACCGCAACTGAAAAGTTGTTATCACTTGTCGTAAGACACTTTGGACGGGTTGATGTTCTGCACGTAGAAGCAAAAGGC [T49C A57T] | 0.3
GAGACCGCAACTGAAAAGTTGTTATCACTTGTCGTAAGACACTTTGGACAGGTTGAAGTTCTGCACGTAGAAGCAAAAGGC [T49C G50A] | 0.216
GAGACCGCAACTGAAAAGTTGTTATCACTTGTCGTAAGACACTTTGGACCGGTTGAAGTTCTGCACGTAGAAGCAAAAGGC [T49C G50C] | 0.455
GAGACCGCAACTGAAAAGTTGTTATCACTTGTCGTAAGACACTTTGGACTGGTTGAAGTTCTGCACGTAGAAGCAAAAGGC [T49C G50T] | 0.714
GAGACCGCAACTGAAAAGTTGTTATCACTTGTCGTAAGACACTTTGGGTGGGTTGGAGTTCTGCACGTAGAAGCAAAAGGC [A48G A56G] | 0.399
GAGACCGCAACTGAAAAGTTGTTATCACTTGTCGTAAGACACTTTGGGTGGGTTGCAGTTCTGCACGTAGAAGCAAAAGGC [A48G A56C] | 0.259
GAGACCGCAACTGAAAAGTTGTTATCACTTGTCGTAAGACACTTTGGGTGGGTTGTAGTTCTGCACGTAGAAGCAAAAGGC [A48G A56T] | 0.357
GAGACCGCAACTGAAAAGTTGTTATCACTTGTCGTAAGACACTTTGGAGTGGTTGAAGTTCTGCACGTAGAAGCAAAAGGC [T49G G50T] | 0.667
GAGACCGCAACTGAAAAGTTGTTATCACTTGTCGTAAGACACTTTGGAGCGGTTGAAGTTCTGCACGTAGAAGCAAAAGGC [T49G G50C] | 0.0713
GAGACCGCAACTGAAAAGTTGTTATCACTTGTCGTAAGACACTTTGGAGAGGTTGAAGTTCTGCACGTAGAAGCAAAAGGC [T49G G50A] | 0.388
GAGACCGCAACTGAAAAGTTGTTATCACTTGTCGTAAGACACTTTGGACGGGTTGGAGTTCTGCACGTAGAAGCAAAAGGC [T49C A56G] | 0.0622
GAGACCGCAACTGAAAAGTTGTTATCACTTGTCGTAAGACACTTTGGACGGGTTGCAGTTCTGCACGTAGAAGCAAAAGGC [T49C A56C] | 0.0481

Variant | fraction ligated
GAGACCGCAACTGAAAAGTTGTTATCACTTGTCGTAAGACACTTTGGACGGGTTGTAGTTCTGCACGTAGAAGCAAAAGGC [T49C A56T] | 0.0726
GAGACCGCAACTGAAAAGTTGTTATCACTTGTCGTAAGACACTTTGGGCGGGTTGAAGTTCTGCACGTAGAAGCAAAAGGC [A48G T49C] | 0.504
GAGACCGCAACTGAAAAGTTGTTATCACTTGTCGTAAGACACTTTGGGGGGGTTGAAGTTCTGCACGTAGAAGCAAAAGGC [A48G T49G] | 0.752
GAGACCGCAACTGAAAAGTTGTTATCACTTGTCGTAAGACACTTTGGGAGGGTTGAAGTTCTGCACGTAGAAGCAAAAGGC [A48G T49A] | 0.678
GAGACCGCAACTGAAAAGTTGTTATCACTTGTCGTAAGACACTTTGGACGGGTTTAAGTTCTGCACGTAGAAGCAAAAGGC [T49C G55T] | 0.091
GAGACCGCAACTGAAAAGTTGTTATCACTTGTCGTAAGACACTTTGGACGGGTTAAAGTTCTGCACGTAGAAGCAAAAGGC [T49C G55A] | 0.335
GAGACCGCAACTGAAAAGTTGTTATCACTTGTCGTAAGACACTTTGGACGGGTTCAAGTTCTGCACGTAGAAGCAAAAGGC [T49C G55C] | 0.0675
GAGACCGCAACTGAAAAGTTGTTATCACTTGTCGTAAGACACTTTGGAACGGTTGAAGTTCTGCACGTAGAAGCAAAAGGC [T49A G50C] | 0.502
GAGACCGCAACTGAAAAGTTGTTATCACTTGTCGTAAGACACTTTGGAAAGGTTGAAGTTCTGCACGTAGAAGCAAAAGGC [T49A G50A] | 0.281
GAGACCGCAACTGAAAAGTTGTTATCACTTGTCGTAAGACACTTTGGAATGGTTGAAGTTCTGCACGTAGAAGCAAAAGGC [T49A G50T] | 0.769
GAGACCGCAACTGAAAAGTTGTTATCACTTGTCGTAAGACACTTTGGAAGGGTTGCAGTTCTGCACGTAGAAGCAAAAGGC [T49A A56C] | 0.102
GAGACCGCAACTGAAAAGTTGTTATCACTTGTCGTAAGACACTTTGGAAGGGTTGTAGTTCTGCACGTAGAAGCAAAAGGC [T49A A56T] | 0.209
GAGACCGCAACTGAAAAGTTGTTATCACTTGTCGTAAGACACTTTGGAAGGGTTGGAGTTCTGCACGTAGAAGCAAAAGGC [T49A A56G] | 0.116
GAGACCGCAACTGAAAAGTTGTTATCACTTGTCGTAAGACACTTTGGTGGGGTTGAAGTTCTGCACGTAGAAGCAAAAGGC [A48T T49G] | 0.348
GAGACCGCAACTGAAAAGTTGTTATCACTTGTCGTAAGACACTTTGGTAGGGTTGAAGTTCTGCACGTAGAAGCAAAAGGC [A48T T49A] | 0.565
GAGACCGCAACTGAAAAGTTGTTATCACTTGTCGTAAGACACTTTGGTCGGGTTGAAGTTCTGCACGTAGAAGCAAAAGGC [A48T T49C] | 0.139
GAGACCGCAACTGAAAAGTTGTTATCACTTGTCGTAAGACACTTTGGAGGGGTTGATGTTCTGCACGTAGAAGCAAAAGGC [T49G A57T] | 0.706
GAGACCGCAACTGAAAAGTTGTTATCACTTGTCGTAAGACACTTTGGAGGGGTTGACGTTCTGCACGTAGAAGCAAAAGGC [T49G A57C] | 0.523
GAGACCGCAACTGAAAAGTTGTTATCACTTGTCGTAAGACACTTTGGAGGGGTTGAGGTTCTGCACGTAGAAGCAAAAGGC [T49G A57G] | 0.734
GAGACCGCAACTGAAAAGTTGTTATCACTTGTCGTAAGACACTTTGGACGGGTTGAAGTTCTGCACGTAGAAGCAAAAGGC [T49C] | 0.731
GAGACCGCAACTGAAAAGTTGTTATCACTTGTCGTAAGACACTTTGGAAGGGTTGAAGTTCTGCACGTAGAAGCAAAAGGC [T49A] | 0.777
GAGACCGCAACTGAAAAGTTGTTATCACTTGTCGTAAGACACTTTGGAGGGGTTGAAGTTCTGCACGTAGAAGCAAAAGGC [T49G] | 0.778
